{"source": "paper PMC12562343", "about": "“Modular Virus-like Particles for Antigen Presentation: Comparing Genetic Fusion and Click-Chemistry for Purification” (International Journal of Molecular Sciences, 2025)", "key": {"[1]": {"target": "HBc-pAzF (HBc ending at Val149 with p-azidophenylalanine in place of Ala80) (Hepatitis B virus genotype D, serotype ayw) (UniProt P03146)", "assay": "SEC; analytical HPLC-SEC of urea-dissociated samples: purified HBc VLPs after incubation with 4 M urea, and AEX eluates in 2 M urea; capsid to dimers"}, "[2]": {"target": "the molecule itself", "assay": "SEC; analytical HPLC-SEC of urea-dissociated samples: purified HBc VLPs after incubation with 4 M urea, and AEX eluates in 2 M urea; capsid to dimers"}}, "data": [{"molecule": "HBc-pAzF (HBc ending at Val149 with p-azidophenylalanine in place of Ala80) (from UniProt P03146 1-149) (domain or fragment)", "values": [{"measurement": "stoichiometry N", "setting": "[1]", "value": 2}]}, {"molecule": "truncated Hepatitis B core antigen (HBc) ending at Val149 (domain or fragment, Hepatitis B core antigen (capsid protein), HBV genotype D, serotype ayw, truncated variant ending at Val149; Forms dimers that assemble into VLPs; no tag is mentioned; also called HBc149; unmodified HBc; source: E. coli BL21(DE3), purified (AMS precipitation, AEX native or under dissociating conditions, HIC)) MDIDPYKEFGATVELLSFLPSDFFPSVRDLLDTASALYREALESPEHCSPHHTALRQAILCWGELMTLATWVGVNLEDPASRDLVVSYVNTNMGLKFRQLLWFHISCLTFGRETVIEYLVSFGVWIRTPPAYRPPNAPILSTLPETTVV", "values": [{"measurement": "stoichiometry N", "setting": "[2]", "value": 2}]}]}
